Promoter activity of ABCA1-luc in transfected H2.35 hepatoma cells, luciferase activity of the FAS promoter reporter (FAS-700 luc) in transfected H2.35 hepatoma cells and luciferase activity of 4×LXRE-luc in transfected H2.35 hepatoma cells, with LXRα/RXR and LXR ligand data for two substances are collected here from patent publication US20080206232A1.

In one experiment the target is LXRα. The experiment in a line: cell-based or functional assay.
For another experiment, the target named is SREBP1c. The experiment in a line: cell-based or functional assay.

For Flag-PGC-1α, the promoter activity of ABCA1-luc in transfected H2.35 hepatoma cells with LXRα is 2 to 3 fold.
As for “Flag-PGC-1β (from UniProt Q8VHJ7 1-1014)”, the luciferase activity of the FAS promoter reporter (FAS-700 luc) in transfected H2.35 hepatoma cells with SREBP1c worked out at 17 fold. For the same substance, in the experiment with LXRα, the luciferase activity of 4×LXRE-luc in transfected H2.35 hepatoma cells, with LXRα/RXR and LXR ligand was above 240 fold; the promoter activity of ABCA1-luc in transfected H2.35 hepatoma cells lay in the range of 2 to 3 fold.
